The source of these data is article PMC6949489, “Glutathione peroxidase 8 negatively regulates caspase‐4/11 to protect against colitis” (EMBO Molecular Medicine, 2019).

The data set deals with the molecule itself. Briefly: native gel or EMSA; blue native PAGE (3-12%) and immunoblot; purified caspase-4 (C258S) incubated with or without oxidized GPx8 30 min at 4°C, then with different amounts of LPS 30 min at 37°C; LPS-induced oligomerization.

B1: FLAG-tagged human caspase-4 (C258S) protease-deficient mutant (natural protein, UniProt P49662 1-377, looked up)
chain: MAEGNHRKKPLKVLESLGKDFLTGVLDNLVEQNVLNWKEEEKKKYYDAKTEDKVRVMADSMQEKQRMAGQMLLQTFFNIDQISPNKKAHPNMEAGPPESGESTDALKLCPHEEFLRLCKERAEEIYPIKERNNRTRLALIICNTEFDHLPPRNGADFDITGMKELLEGLDYSVDVEENLTARDMESALRAFATRPEHKSSDSTFLVLMSHGILEGICGTVHDEKKPDVLLYDTIFQIFNNRNCLSLKDKPKVIIVQASRGANRGELWVRDSPASLEVASSQSSENLEEDAVYKTHVEKDFIAFCSSTPHNVSWRDSTMGSIFITQLITCFQKYSWCCHLEEVFRKVQQSFETPRAKAQMPTIERLSMTRYFYLFPGN
notes: human caspase-4 with the protease-deficient mutation C258S; also called Casp4C258S; source: 293T, transfected, in lysate
As for B1, the binding result is recorded as “binds”.
